{
  "source": "patent US20050170334A1",
  "molecular_target": "M2 peptide (extracellular 23-amino-acid M2 peptide) (influenza A virus)",
  "experiment": "ELISA, peptide coated, antibody 10 µg/ml",
  "data": [
    {"substance": "mouse anti-M2 antibody 14C2", "values": [
      {"measurement": "ELISA (OD450)", "value": 1.97, "unit": "OD450"}
    ]}
  ]
}
